How the values were obtained:
Assay in all cases: cell-based or functional assay
[1] = molecular target: MTH1 target polypeptide with a 10 amino acid spacer and a carboxy terminal S-tag acceptor peptide
[2] = molecular target: MTH1 target polypeptide with a 3 amino acid spacer and a carboxy terminal S-tag acceptor peptide
[3] = molecular target: MTH1-S-tag fusion protein with no linker between MTH1 and the S-tag peptide

Measured: S protein concentration at which the fluorescent signal starts to saturate

His tagged RNase donor protein (S protein), sequence (P61823 other isoform, or with tags, fused parts or gaps limits assumed): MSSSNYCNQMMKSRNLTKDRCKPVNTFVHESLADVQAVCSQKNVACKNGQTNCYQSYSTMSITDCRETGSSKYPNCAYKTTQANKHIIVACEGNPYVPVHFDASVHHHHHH

His tagged RNase donor protein (S protein) (from UniProt P61823 47-150)
1 to 2 ng/µL: [1] | [2] | [3]
